Paper PMC5394233, “Structural and functional analysis of the human POT1-TPP1 telomeric complex” (Nature Communications, 2017)
Residue numbers refer to the chain shown, from its start.

Key:
Assay in all cases: fluorescence polarization; FP: 20 mM Hepes pH 7.5, 100 mM KCl, 2 mM MgCl2, 1 mM EDTA, 2 mM DTT, 1 mg/ml BSA, 5% glycerol, 75 nM polyT50 competitor, 2.5 nM probe, room temperature 30 min
[1] = molecular target: T1, flPOT1 Q623H (Homo sapiens, UniProt Q9NUX5 1-634, Q623H); conditions: protein: recombinant; tags: N-terminal His6-pMocr, TEV-cleaved; label: 5' 6-FAM; single strand
T1 sequence: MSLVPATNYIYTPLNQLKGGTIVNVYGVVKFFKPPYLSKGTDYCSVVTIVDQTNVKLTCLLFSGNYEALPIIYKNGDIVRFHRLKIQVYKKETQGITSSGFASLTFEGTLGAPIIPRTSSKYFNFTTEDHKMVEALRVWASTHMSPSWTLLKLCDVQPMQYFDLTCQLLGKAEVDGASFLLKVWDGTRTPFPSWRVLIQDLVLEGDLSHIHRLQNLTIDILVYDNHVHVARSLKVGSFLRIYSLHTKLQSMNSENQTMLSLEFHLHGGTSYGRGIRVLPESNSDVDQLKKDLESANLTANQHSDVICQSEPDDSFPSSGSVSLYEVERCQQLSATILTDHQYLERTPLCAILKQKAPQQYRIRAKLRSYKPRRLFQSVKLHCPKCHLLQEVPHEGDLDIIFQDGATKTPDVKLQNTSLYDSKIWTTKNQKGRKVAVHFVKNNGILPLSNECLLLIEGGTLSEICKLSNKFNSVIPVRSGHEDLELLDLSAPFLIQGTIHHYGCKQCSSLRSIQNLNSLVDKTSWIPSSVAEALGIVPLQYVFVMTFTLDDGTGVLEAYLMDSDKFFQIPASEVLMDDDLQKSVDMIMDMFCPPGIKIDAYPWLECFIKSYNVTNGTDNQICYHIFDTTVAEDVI

[2] = molecular target: flPOT1 P475L;TPP1(87) (Homo sapiens;Homo sapiens, UniProt Q9NUX5;Q96AP0 1-634;1-458, P475L|); conditions: protein: recombinant;recombinant, tags: N-terminal His6-pMocr, TEV-cleaved;N-terminal His6-MBP, copies: 1;1, label: 5' 6-FAM, single strand
flPOT1 P475L;TPP1(87), sequence (Q9NUX5 whole entry P475L, chain 1 of 2): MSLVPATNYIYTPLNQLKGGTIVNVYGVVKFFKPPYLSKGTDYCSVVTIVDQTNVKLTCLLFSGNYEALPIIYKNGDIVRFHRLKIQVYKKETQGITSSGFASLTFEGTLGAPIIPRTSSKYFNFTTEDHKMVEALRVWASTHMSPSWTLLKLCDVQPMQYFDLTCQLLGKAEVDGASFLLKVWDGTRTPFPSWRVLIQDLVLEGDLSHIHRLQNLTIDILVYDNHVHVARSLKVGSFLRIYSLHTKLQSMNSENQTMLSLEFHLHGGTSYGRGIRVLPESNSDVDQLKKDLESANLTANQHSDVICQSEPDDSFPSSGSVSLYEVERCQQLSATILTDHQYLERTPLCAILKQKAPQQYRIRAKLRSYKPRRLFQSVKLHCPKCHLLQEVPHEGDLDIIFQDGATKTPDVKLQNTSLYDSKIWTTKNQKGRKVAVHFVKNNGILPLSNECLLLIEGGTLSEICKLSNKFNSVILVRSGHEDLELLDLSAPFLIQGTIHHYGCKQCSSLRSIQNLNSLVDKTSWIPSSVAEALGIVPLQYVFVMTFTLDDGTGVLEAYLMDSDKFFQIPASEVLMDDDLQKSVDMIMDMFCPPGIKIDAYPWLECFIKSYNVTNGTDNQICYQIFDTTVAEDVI
flPOT1 P475L;TPP1(87), sequence (Q96AP0 whole entry, chain 2 of 2): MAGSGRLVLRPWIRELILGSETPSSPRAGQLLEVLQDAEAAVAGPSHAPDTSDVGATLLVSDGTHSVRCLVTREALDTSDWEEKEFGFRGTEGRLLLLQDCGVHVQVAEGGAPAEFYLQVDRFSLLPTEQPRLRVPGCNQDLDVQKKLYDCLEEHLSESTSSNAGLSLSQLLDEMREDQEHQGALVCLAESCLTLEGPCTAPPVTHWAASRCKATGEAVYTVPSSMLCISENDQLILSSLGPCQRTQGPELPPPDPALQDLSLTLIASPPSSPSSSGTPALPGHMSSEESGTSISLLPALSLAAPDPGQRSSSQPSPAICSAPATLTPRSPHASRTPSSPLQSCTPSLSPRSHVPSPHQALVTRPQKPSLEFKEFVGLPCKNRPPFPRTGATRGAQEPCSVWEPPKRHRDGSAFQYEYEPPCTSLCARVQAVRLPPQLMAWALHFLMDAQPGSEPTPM

[3] = molecular target: flPOT1 WT;TPP1(87) (Homo sapiens;Homo sapiens, UniProt Q9NUX5;Q96AP0 1-634;1-458, |); conditions: protein: recombinant;recombinant, tags: N-terminal His6-pMocr, TEV-cleaved;N-terminal His6-MBP, copies: 1;1, label: 5' 6-FAM, single strand
flPOT1 WT;TPP1(87), sequence (Q9NUX5 whole entry, chain 1 of 2): as the sequence (Q9NUX5 whole entry P475L, chain 1 of 2) above, with L475P counted along it
flPOT1 WT;TPP1(87), sequence (Q96AP0 whole entry, chain 2 of 2): as the sequence (Q96AP0 whole entry, chain 2 of 2) above

[4] = molecular target: flPOT1 Q623H;TPP1(87) (Homo sapiens;Homo sapiens, UniProt Q9NUX5;Q96AP0 1-634;1-458, Q623H|); conditions: protein: recombinant;recombinant, tags: N-terminal His6-pMocr, TEV-cleaved;N-terminal His6-MBP, copies: 1;1, label: 5' 6-FAM, single strand
flPOT1 Q623H;TPP1(87), sequence (Q96AP0 whole entry, chain 2 of 2, one chain of several): as the sequence (Q96AP0 whole entry, chain 2 of 2) above

[5] = molecular target: T2, POT1C (Homo sapiens, UniProt Q9NUX5 330-634); conditions: protein: recombinant; tags: N-terminal His6-pMocr, TEV-cleaved; label: 5' 6-FAM; single strand
T2 sequence: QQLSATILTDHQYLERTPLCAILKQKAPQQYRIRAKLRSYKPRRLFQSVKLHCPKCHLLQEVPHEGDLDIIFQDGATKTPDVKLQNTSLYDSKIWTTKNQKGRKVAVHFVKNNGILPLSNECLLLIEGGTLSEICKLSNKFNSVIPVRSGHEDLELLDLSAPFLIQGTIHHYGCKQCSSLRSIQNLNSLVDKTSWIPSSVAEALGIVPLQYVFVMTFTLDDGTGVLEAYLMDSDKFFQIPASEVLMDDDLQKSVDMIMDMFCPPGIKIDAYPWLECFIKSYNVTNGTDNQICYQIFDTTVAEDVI

[6] = molecular target: T3, flPOT1 P446Q (Homo sapiens, UniProt Q9NUX5 1-634, P446Q); conditions: protein: recombinant; tags: N-terminal His6-pMocr, TEV-cleaved; label: 5' 6-FAM; single strand
T3 sequence: T1 sequence with P446Q, H623Q

B1: telomeric 18mer (TTAGGG)3 (ssDNA)
DNA: TTAGGGTTAGGGTTAGGG
Kd [1]: ~20 nM | Kd [2]: 10.7 ± 1.4 nM | Kd [3]: ~5.8 nM | Kd [4]: 8.9 ± 1 nM | binding result [5]: no binding | Kd [6]: ~20 nM
